Test results reported in patent publication US20050260219A1, “Carboxypeptidases B from anopheles gambiae. compositions comprising them, vaccine applications and use as therapeutical targets” (INSTITUT PASTEUR, priority 2004, published 2005).
Values joined by “and” are separate entries in the source; they are usually repeats but may differ in a detail not shown here. Equal entries are not always repeated. Marks after values point to notes of the source that are not given here.

Assays:
CPBAg1 = CPBAg1 specific ELISA titers in sera from immunized mice; assay type: in vivo; conditions: Swiss mice
Protocol: Specific antibody titers against CPBAg1 were measured in duplicates for each mice by ELISA three weeks after the first (group 1) and the booster (group 2) immunization. The average reading at O.D. 490 nm of each group was plotted against the reciprocal sera dilution. End points were defined as the highest serial dilutions yielding an absorbance reading at 490 nm greater than 0.5. (Δ) and (□) show antibody titers from group 1 and 2 respectively in sera from immunized mice. (▴) and (▪) show antibody titers from group 1 and 2 respectively in sera from control mice.
Immunizations were performed with a recombinant CPBAg1 protein expressed in insect cells using the baculovirus expression system. Eleven 3- to 4-week-old female Swiss outbred mice (CERJ, Le Genest St-Isle, France) were injected subcutaneously with 20 μg of recombinant CPBAg1 in sterile PBS, emulsified with complete Freund's adjuvant (Sigma). […]
Microtiter plates (Immuno-plate Maxisorp, Nunc) were coated with 50 ng/well of CPBAg1 in PBS, overnight at 4° C., and saturated with 100 μl/well 0.5% gelatine (Sigma) in PBS for 1 h. […] After 10 min. incubation, the reaction was stopped with 50 μl 3N HCl and absorbance was measured at 490 nm using a microplate reader (Molecular Devices). Serum dilutions at an absorbance value of 0.5 were designated as the endpoint of ELISA titers.

P. berghei = assay: Transmission-blocking assays: An. gambiae fed on CPBAg1 immunized, P. berghei infected mice; assay type: in vivo, Plasmodium berghei; conditions: for Mean no. of oocysts (range): per positive midgut, day 9-11; for % of reduction R: infected mosquitoes fed on immunized versus control mice
Protocol: Immunizations were performed with a recombinant CPBAg1 protein expressed in insect cells using the baculovirus expression system. Eleven 3- to 4-week-old female Swiss outbred mice (CERJ, Le Genest St-Isle, France) were injected subcutaneously with 20 μg of recombinant CPBAg1 in sterile PBS, emulsified with complete Freund's adjuvant (Sigma). Eleven control mice were injected simultaneously with sterile PBS/adjuvant following the same protocol. On day 21 post-immunization, eight immunized mice and eight control mice (group 1) were challenged with P. berghei for transmission blocking assays (see below). The three other immunized mice were boosted with 10 μg of recombinant CPBAg1 formulated in incomplete Freund's adjuvant (Sigma) and the three other control mice were injected simultaneously with sterile PBS/incomplete adjuvant. These six mice, which constituted group 2, were challenged with P. berghei 21 days after the booster immunization. Sera from immunized and control mice of both groups were prepared from 100 μl blood samples collected the same day as mosquito feeding (24 days after the first and booster immunizations).
On day 21 after the first and booster immunizations, mice were peritoneally inoculated with the P. berghei ANKA strain 2.34. On day 3 after P. berghei inoculation, parasitemia and gametocytemia were determined using Giemsa stained thin blood smears, and the mice were used for mosquito feeding. In group 1, parasitemia and gametocytemia ranged from 3.2% to 6.2% and from 6,500 to 11,500 gametocytes/μl for control mice, whereas they ranged from 3% to 7.4% and from 7,500 to 13,500 gametocytes/μl for immunized mice. In group 2, they ranged from 2% to 2.9% and from 2,000 to 4,000 gametocytes/μl for control mice, whereas they ranged from 1.5% to 3.6% and from 1,000 to 2,000 gametocytes/μl for immunized mice. Each mouse was placed onto a netted cage containing 50 starved 5-day-old An. gambiae females and feeding was carried out for 15 minutes at 21° C. After mosquito feeding, mice were bled to collect sera for ELISAs experiments and fully engorged mosquito females were maintained at 21° C., 80% humidity, until dissections. Rate of infection (number of infected mosquitoes/number of dissected mosquitoes) and intensity of infection (mean number of oocysts per positive midgut) were scored on day 9-11 after blood feeding by detection of oocysts on the mosquito midgut wall.
For the data reported in Table 7 below, An. gambiae were fed on control or immunized mice from group 1 (after primary immunization) and group 2 (after booster immunization). Proportion of infected mosquitoes (rate of infection) and mean number of oocysts per positive midgut (intensity of infection) were determined on day 9-11 post feeding. R: % reduction was calculated as R %=100×[1−(% infected mosquitoes fed on immunized mice/% infected mosquitoes fed on control mice)], using the mean value from each experimental group.

[1] = test system: P. berghei PbGFPCON ANKA strain; assay: Effect of CPBAg1 immunized mice sera on parasite development (GFP-expressing P. berghei); assay type: in vivo, Plasmodium berghei
Protocol: Intensity of infection (number of parasites per positive midgut) by P. berghei was scored by detection of GFP-expressing parasites in midguts of mosquitoes fed on control (black bars) and immunized mice (grey bars). Gametocytemia was determined just before feeding by Giemsa staining of thin smears and by GFP fluorescence detection. Mosquitoes were dissected at 3 h, 24 h, 48 h and 9 days after blood feeding to visualize zygotes (Zyg), ookinetes (Ook), young oocysts (Ooc 48 h) and mature oocysts (Ooc day 9), respectively. Geometric mean intensity for six immunized mice was plotted as % of that for six control mice set at 100%. The table indicates the geometric mean number of parasite per midgut at each parasite life stages.
To assess the effect of anti-CPBAg1 sera on parasite development, a new group of six mice was immunized as described above and six control mice were injected with PBS/adjuvant. […] On day 3 after P. berghei inoculation, gametocytemia were determined by Giemsa staining of thin blood smears and by GFP fluorescence detection. […] Intensity of infection was scored by counting the number of zygotes and ookinetes within the mosquito midgut content, and the number of oocysts on the midgut wall. GFP fluorescence was visualized using GFP filter settings with a Zeiss Axiovert 25 fluorescence microscope.

[2] = substrate: N=C(N)NCCC[C@H](NC(=O)CNC(=O)c1ccccc1)C(=O)O; assay: Carboxypeptidase activity assay on recombinant CPBAg1 with di-peptide substrates; assay type: biochemical, Anopheles gambiae; conditions: other: hydrolysis of Hip-Arg, Michaelis-Menten, 0.02-10 mM substrate; pH 7.2; 25.0 °C
Protocol: Carboxypeptidase activity was determined using the synthetic di-peptide substrates Hippuryl-Arginine (Hip-Arg), Hippuryl-Lysine (Hip-Lys) as carboxypeptidase B substrates and Hippuryl-Phenylalanine (Hip-Phe) as carboxypeptidase A substrate. All reagents were purchased from Sigma. Activities were assayed in 20 μl E buffer (100 mM NaCl/50 mM Hepes/100 μM ZnCl2 pH 7.2) containing 1 mM Hip-Arg, Hip-Lys or Hip-Phe. The reaction was initiated by adding an equal volume of His-tagged CPBAg1 (5 ng/μl in E buffer), incubated at 25° C. for 10-40 min, and stopped by the addition of 20 μl Ninhydrin reagent (Sigma, Lyon, France). The rate of the reaction was measured by estimating the amount of released amino acids using the ninhydrin procedure (60). One unit of enzyme activity was defined as μmol of amino acids released/min.
Estimation of Km and kcat was carried out after assays over a 500-fold range of Hip-Arg concentration (0.02-10 mM). Each concentration was assayed in triplicate. The kinetic parameters were derived from iterative non-linear least square fits of the Michaelis-Menten equation using the experimental data (61). Confidence limits for the fitted values were determined by 100 Monte Carlo iterations using the experimental standard deviations on individual measurements. […]

B1: CPBAg1: recombinant His-tagged An. gambiae carboxypeptidase B (SEQ ID NO: 2) from baculovirus/insect cells, used to immunize mice (protein, listed as Anopheles gambiae)
chain: MKRLTFVTGCLLALAFAKAGSYHEFELYNVRPETAEQLSVLLKWRNGQEIEVDFWDAPKVGRSARLMVTREDHKRVEEFLEQHDIEYDLVAEDVQELLNREQRRNVEHGRRLRRDSNSRATVNFEHFWTLDEIYEYLDELAVAYNGLVRVSEIGRTHEDRPIKAITISTRGAVDQTRPIVFMDGGIHAREWAGVMSVMYMIHEFVEHSDQYAEQLSNTDYVIVPVANPDGYVYTHEQNRLWRKNRSPGNVLCYGVDLNRNFPFQWDRTTSECTNNFAGHAASSENETKALIGLMDQYKAAIRMYLAVHTYGEMILWPWGYDFLHAPNEDDLQRLGERARDALVAAGGPEYEVGNSADILYTASGATDDYAYSLGVPYSYTLELTGGGSQGFDLPAAELARVTSQTFELLKVFGQHAGTLSVTS
modifications: His tag
endpoint titer of specific anti-CPBAg1 antibodies (CPBAg1; group 1: single injection of 20 μg in complete Freund's adjuvant, 24 days after immunization): ~12,150
endpoint titer of specific anti-CPBAg1 antibodies (CPBAg1; group 2: second injection on day 21): ~36,450
Rate of infection % (number of dissected mosquitoes) (P. berghei; Group 1 (primary immunization), individual immunized mice Im 1-Im 8, day 9-11 post feeding): 9.4 (32)* % and 0 (20)* % and 43.3 (30)* % and 31.2 (32)* % and 41.2 (17)* % and 38.8 (18)* % and 50 (30)* % and 10.5 (38)* %
Mean no. of oocysts (range) (P. berghei; Group 1, individual immunized mice Im 1-Im 8): 2.5 (1-5)* and 0* and 7.16 (1-56) and 3.7 (1-70) and 5.4 (1-27) and 5.8 (1-32) and 6.7 (1-117) and 3.3 (1-15)
% of reduction R (P. berghei; Group 1): 63% and 63.2%
Rate of infection % (number of dissected mosquitoes) (P. berghei; Group 2 (booster immunization), individual immunized mice Im 9-Im 11, day 9-11 post feeding): 77.4 (31)* % and 26.6 (30)* % and 36.6 (30)* %
Mean no. of oocysts (range) (P. berghei; Group 2, individual immunized mice Im 9-Im 11): 23.7 (1-120) and 6.2 (3-10)* and 24.3 (6-100)
% of reduction R (P. berghei; Group 2): 51% and 50.6%
Mean no. of oocysts (P. berghei; Mean Group 1, immunized mice): 5.3
Rate of infection % (number of dissected mosquitoes) (P. berghei; Mean Group 1, immunized mice): 28.1 (217)* %
Mean no. of oocysts (P. berghei; Mean Group 2, immunized mice): 18.6*
Rate of infection % (number of dissected mosquitoes) (P. berghei; Mean Group 2, immunized mice): 47.2 (91)* %
reduction of mean infection intensity versus mosquitoes fed on control mice ([1]; 3 h PBM (zygotes)): 40%
reduction of mean infection intensity versus mosquitoes fed on control mice ([1]; day 9 PBM (mature oocysts)): 65%

B2: recombinant CPBAg1 (Anopheles gambiae) (protein)
chain: GSYHEFELYNVRPETAEQLSVLLKWRNGQEIEVDFWDAPKVGRSARLMVTREDHKRVEEFLEQHDIEYDLVAEDVQELLNREQRRNVEHGRRLRRDSNSRATVNFEHFWTLDEIYEYLDELAVAYNGLVRVSEIGRTHEDRPIKAITISTRGAVDQTRPIVFMDGGIHAREWAGVMSVMYMIHEFVEHSDQYAEQLSNTDYVIVPVANPDGYVYTHEQNRLWRKNRSPGNVLCYGVDLNRNFPFQWDRTTSECTNNFAGHAASSENETKALIGLMDQYKAAIRMYLAVHTYGEMILWPWGYDFLHAPNEDDLQRLGERARDALVAAGGPEYEVGNSADILYTASGATDDYAYSLGVPYSYTLELTGGGSQGFDLPAAELARVTSQTFELLKVFGQHAGTLSVTS
Km [2]: 2590 µM
